Target: the molecule itself
Assay: SEC-MALS; Superdex 200 10/300, 20 mM Tris-HCl pH 8.0, 150 mM NaCl, 0.4 mL/min, 25°C; BSA as the reference

B1: full-length mouse IRG1 (immune responsive gene 1) (enzyme, Mus musculus (mouse), UniProt P54987 1-488, looked up)
chain: MMLKSVTESFAGMIHGLKVNHLTDGIIRRSKRMILDSLGVGFLGTGTEVFHKVTQYSKIYSSNTSSTVWGRPDFRLPPTYAAFVNGVAVHSMDFDDTWHPATHPSGAVLPVLTALSEALPQIPKFSGLDLLLAFNVGIEVQGRLMHFSKEAKDIPKRFHPPSVVGTLGSAAAASKFLGLSLTKCREALAIAVSHAGAPIANAATQTKPLHIGNAAKHGMEATFLAMLGLQGNKQILDLGSGFGAFYANYSPEDLPSLDSHIWLLDQQDVAFKSFPAHLATHWVADAAAAVRKHLVTPERALFPADHIERIVLRIPDVQYVNRPFPDSEHEARHSFQYVACASLLDGSITVPSFHSQQVNRPQVRELLKKVKLEHPPDNPPSFDTLYCEISITLKDGTTFTERSDTFYGHWRKPLSQEDLRNKFRANASKMLCRDTVESLITVVEKLEDLEDCSVLTRLLKGPSVQDEASKLSSMSSFDHTTLPRFTNI
notes: immune responsive gene 1 (IRG1, cis-aconitate decarboxylase), Mus musculus, NCBI NP_032418.1, full length, residues 1 to 488, cloned into pET21a (NdeI/XhoI); In the crystal, molecule A was modelled from residues 5 to 463 and molecule B from residues 4 to 460; the rest was not traceable; also called cis-aconitate decarboxylase; CAD; source: E. coli BL21 (DE3), purified (Ni-NTA, SEC); not shown: …
stoichiometry N: 2

— PMC7707506, “The crystal structure of mouse IRG1 suggests that cis-aconitate decarboxylase has an open and closed conformation” (PLoS ONE, 2020)
